Test results as given in patent publication US5891438.

Legend:
[1] = target: human tonsillar B cells (CD20+ / CD19+, surface Ig); test: flow cytometry, dual staining with biotinylated bacterial antigen
[2] = target: human tonsillar B cells (CD20+ / CD19+, surface Ig); test: flow cytometry, biotinylated mod-SpA on tonsillar B cells; the pair that the inhibitors of Table 5 block

Protein G (from UniProt P19909) showed a Protein G Binding (share of CD20 tonsillar cells) [1] of 9%.

“SpA modified by hyperiodination to destroy IgG Fc binding activity (mod-SpA) (from UniProt P38507)” was tested, and the Binding (proportion of the total B cells bound by mod-SpA) [2] was 15.

“staphylococcal protein A (SpA), purified recombinant form (from UniProt P38507)” showed a SpA Binding (share of CD20 tonsillar cells) [1] of 29%.
